Source: patent US20240299459A1

Key:
[1] = target: integrin β1 on human synovium-derived stem cells (human) (UniProt P05556); assay: flow cytometry staining of human synovium-derived stem cells, fourth lot listed (ST1462)
[2] = target: integrin β1 on human synovium-derived stem cells (human) (UniProt P05556); assay: flow cytometry staining of human synovium-derived stem cells, third lot listed (ST1434)
[3] = target: integrin β1 on human synovium-derived stem cells (human) (UniProt P05556); assay: flow cytometry staining of human synovium-derived stem cells, first lot listed (ST1414)
[4] = target: integrin β1 on human synovium-derived stem cells (human) (UniProt P05556); assay: flow cytometry staining of human synovium-derived stem cells, second lot listed (ST1420)
[5] = target: platelet-derived growth factor receptor β on rat synovium-derived mesenchymal stem cells (rat) (UniProt Q05030); assay: flow cytometry staining of rat synovium-derived MSC with FITC anti-goat secondary, TrypLE detachment 5 minutes
[6] = target: platelet-derived growth factor receptor β on rat synovium-derived mesenchymal stem cells (rat) (UniProt Q05030); assay: cell-based or functional assay
[7] = target: platelet-derived growth factor receptor β on human synovium-derived stem cells (human) (UniProt P09619); assay: flow cytometry staining of human synovium-derived stem cells, fourth lot listed (ST1462)
[8] = target: platelet-derived growth factor receptor β on rat synovium-derived mesenchymal stem cells (rat) (UniProt Q05030); assay: flow cytometry staining of rat synovium-derived MSC with FITC anti-goat secondary, TrypLE detachment 60 minutes
[9] = target: platelet-derived growth factor receptor β on human synovium-derived stem cells (human) (UniProt P09619); assay: flow cytometry staining of human synovium-derived stem cells, third lot listed (ST1434)
[10] = target: platelet-derived growth factor receptor β on rat synovium-derived mesenchymal stem cells (rat) (UniProt Q05030); assay: flow cytometry staining of rat synovium-derived MSC with FITC anti-goat secondary, TrypLE detachment 30 minutes
[11] = target: platelet-derived growth factor receptor β on human synovium-derived stem cells (human) (UniProt P09619); assay: flow cytometry staining of human synovium-derived stem cells, first lot listed (ST1414)
[12] = target: platelet-derived growth factor receptor β on human synovium-derived stem cells (human) (UniProt P09619); assay: flow cytometry staining of human synovium-derived stem cells, second lot listed (ST1420)
[13] = target: platelet-derived growth factor receptor β on rat synovium-derived mesenchymal stem cells (rat) (UniProt Q05030); assay: flow cytometry staining of rat synovium-derived MSC with FITC anti-goat secondary, TrypLE detachment 120 minutes
[14] = target: integrin β1 on rat synovium-derived mesenchymal stem cells (rat) (UniProt P49134); assay: flow cytometry staining of rat synovium-derived MSC, TrypLE detachment 30 minutes
[15] = target: integrin β1 on rat synovium-derived mesenchymal stem cells (rat) (UniProt P49134); assay: flow cytometry staining of rat synovium-derived MSC cultured 8 days, TrypLE detachment 120 minutes
[16] = target: integrin β1 on rat synovium-derived mesenchymal stem cells (rat) (UniProt P49134); assay: flow cytometry staining of rat synovium-derived MSC, TrypLE detachment 60 minutes
[17] = target: integrin β1 on rat synovium-derived mesenchymal stem cells (rat) (UniProt P49134); assay: flow cytometry staining of rat synovium-derived MSC cultured 21 days, TrypLE detachment 120 minutes
[18] = target: integrin β1 on rat synovium-derived mesenchymal stem cells (rat) (UniProt P49134); assay: flow cytometry staining of rat synovium-derived MSC, TrypLE detachment 5 minutes
[19] = target: integrin β1 on rat synovium-derived mesenchymal stem cells (rat) (UniProt P49134); assay: flow cytometry staining of rat synovium-derived MSC, TrypLE detachment 120 minutes
[20] = target: integrin β1 on rat synovium-derived mesenchymal stem cells (rat) (UniProt P49134); assay: flow cytometry staining of rat synovium-derived MSC cultured 28 days, TrypLE detachment 120 minutes

Chain of UniProt Q05030 (Q05030 32-1097): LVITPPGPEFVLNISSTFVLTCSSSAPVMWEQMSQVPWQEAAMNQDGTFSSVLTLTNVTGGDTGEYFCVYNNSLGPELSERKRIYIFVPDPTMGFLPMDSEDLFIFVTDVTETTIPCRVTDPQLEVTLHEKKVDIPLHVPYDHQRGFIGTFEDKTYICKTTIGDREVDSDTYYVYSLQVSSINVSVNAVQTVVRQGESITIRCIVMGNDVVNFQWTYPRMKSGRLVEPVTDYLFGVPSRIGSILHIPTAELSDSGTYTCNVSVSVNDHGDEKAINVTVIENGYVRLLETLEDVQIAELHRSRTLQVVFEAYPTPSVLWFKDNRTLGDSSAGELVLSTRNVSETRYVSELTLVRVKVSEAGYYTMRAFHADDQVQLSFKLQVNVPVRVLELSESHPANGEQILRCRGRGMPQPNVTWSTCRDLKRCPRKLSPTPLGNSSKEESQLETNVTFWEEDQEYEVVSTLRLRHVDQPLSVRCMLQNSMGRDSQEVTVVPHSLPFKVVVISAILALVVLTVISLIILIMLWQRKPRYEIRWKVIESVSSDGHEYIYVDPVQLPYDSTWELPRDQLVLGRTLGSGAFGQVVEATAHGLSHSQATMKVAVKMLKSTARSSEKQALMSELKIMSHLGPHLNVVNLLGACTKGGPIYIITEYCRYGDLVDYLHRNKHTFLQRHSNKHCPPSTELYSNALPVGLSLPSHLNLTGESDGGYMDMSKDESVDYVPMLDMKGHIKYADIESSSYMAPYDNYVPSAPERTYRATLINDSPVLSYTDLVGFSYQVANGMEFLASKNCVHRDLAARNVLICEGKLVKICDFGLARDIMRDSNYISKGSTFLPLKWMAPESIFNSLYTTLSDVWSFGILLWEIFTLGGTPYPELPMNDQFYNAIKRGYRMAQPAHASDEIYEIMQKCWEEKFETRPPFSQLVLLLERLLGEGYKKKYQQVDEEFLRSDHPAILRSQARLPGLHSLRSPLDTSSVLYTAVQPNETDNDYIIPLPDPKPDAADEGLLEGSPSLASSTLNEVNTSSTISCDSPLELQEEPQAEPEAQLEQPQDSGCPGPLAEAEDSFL
Chain of UniProt P49134 (P49134 21-798): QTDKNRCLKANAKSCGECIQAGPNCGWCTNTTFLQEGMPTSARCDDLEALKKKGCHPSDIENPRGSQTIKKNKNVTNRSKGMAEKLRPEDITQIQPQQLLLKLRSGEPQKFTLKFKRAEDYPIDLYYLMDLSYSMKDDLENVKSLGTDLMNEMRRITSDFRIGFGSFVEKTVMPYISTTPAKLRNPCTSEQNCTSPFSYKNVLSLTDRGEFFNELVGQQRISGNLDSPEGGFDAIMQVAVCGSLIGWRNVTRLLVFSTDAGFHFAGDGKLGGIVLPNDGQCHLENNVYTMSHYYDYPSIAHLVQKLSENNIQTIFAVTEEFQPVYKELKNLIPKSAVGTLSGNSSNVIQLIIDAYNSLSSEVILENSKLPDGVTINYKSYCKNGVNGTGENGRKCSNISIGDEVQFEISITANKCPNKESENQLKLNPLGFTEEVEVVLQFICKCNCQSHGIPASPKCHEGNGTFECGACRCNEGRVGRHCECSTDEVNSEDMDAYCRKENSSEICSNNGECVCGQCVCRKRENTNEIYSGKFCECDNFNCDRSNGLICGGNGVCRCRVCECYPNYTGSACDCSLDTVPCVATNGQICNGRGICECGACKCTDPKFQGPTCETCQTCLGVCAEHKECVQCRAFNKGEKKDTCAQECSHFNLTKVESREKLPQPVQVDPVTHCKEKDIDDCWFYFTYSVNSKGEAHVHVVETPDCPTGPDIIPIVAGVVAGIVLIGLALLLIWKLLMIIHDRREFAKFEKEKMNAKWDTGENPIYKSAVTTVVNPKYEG
Chain of UniProt P09619 (P09619 33-1106): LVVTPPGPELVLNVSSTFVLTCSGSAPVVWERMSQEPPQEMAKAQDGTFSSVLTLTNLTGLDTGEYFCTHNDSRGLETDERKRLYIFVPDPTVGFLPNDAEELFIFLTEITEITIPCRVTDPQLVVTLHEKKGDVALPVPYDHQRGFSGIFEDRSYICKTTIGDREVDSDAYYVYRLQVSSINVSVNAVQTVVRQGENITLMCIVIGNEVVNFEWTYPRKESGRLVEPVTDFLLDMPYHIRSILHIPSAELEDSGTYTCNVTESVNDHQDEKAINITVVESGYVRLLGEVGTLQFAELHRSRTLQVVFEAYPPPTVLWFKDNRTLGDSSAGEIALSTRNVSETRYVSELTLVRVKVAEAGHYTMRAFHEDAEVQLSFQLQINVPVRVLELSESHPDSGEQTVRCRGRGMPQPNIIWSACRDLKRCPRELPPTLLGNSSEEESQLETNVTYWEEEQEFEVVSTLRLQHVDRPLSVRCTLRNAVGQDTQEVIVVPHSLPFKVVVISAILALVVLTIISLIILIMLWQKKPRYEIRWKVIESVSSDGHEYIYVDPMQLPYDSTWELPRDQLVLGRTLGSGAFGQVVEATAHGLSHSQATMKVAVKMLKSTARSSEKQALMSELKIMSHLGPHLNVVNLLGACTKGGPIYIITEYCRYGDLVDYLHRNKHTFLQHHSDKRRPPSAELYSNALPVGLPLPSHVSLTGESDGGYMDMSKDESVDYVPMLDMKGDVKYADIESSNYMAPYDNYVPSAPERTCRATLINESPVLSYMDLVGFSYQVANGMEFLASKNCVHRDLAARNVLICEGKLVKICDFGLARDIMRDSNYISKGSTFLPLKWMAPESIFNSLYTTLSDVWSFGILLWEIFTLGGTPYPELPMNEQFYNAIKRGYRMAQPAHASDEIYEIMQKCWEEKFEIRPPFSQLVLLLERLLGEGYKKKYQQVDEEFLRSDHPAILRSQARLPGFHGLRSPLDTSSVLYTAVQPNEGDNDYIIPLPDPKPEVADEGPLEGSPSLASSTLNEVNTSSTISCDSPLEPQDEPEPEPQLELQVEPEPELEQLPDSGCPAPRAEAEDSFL
Chain of UniProt P05556 (P05556 21-798): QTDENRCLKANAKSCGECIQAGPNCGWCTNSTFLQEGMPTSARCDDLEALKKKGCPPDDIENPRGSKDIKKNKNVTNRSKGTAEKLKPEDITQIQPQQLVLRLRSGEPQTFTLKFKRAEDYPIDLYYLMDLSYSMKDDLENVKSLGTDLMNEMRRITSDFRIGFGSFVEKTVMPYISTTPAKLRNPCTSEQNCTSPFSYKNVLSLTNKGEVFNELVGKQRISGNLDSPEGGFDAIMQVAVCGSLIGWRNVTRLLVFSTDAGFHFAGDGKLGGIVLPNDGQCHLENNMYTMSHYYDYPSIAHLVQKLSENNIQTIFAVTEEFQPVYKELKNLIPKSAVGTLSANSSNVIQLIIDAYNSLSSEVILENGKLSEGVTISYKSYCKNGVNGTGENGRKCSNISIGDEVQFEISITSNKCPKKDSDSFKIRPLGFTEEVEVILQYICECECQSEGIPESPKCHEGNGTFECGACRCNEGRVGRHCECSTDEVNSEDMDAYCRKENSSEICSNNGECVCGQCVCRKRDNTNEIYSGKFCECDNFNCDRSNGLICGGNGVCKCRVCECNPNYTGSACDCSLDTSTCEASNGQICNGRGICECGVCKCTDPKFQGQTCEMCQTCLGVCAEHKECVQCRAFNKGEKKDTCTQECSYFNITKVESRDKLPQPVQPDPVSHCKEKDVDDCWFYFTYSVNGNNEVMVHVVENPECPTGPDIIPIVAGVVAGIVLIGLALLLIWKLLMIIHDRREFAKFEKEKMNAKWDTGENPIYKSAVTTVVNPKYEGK

APC Mouse Anti-Human CD29, Cat: 559883 (antibody)
surface antigen positive rate [1]: 99.5% | surface antigen positive rate [2]: 99.6% | surface antigen positive rate [3]: 99.4% | surface antigen positive rate [4]: 99.6%

Anti-PDGF Receptor β Human Goat-Poly (R & D Systems Cat. No. AF385) (antibody)
Expression rate (percent positive cells) [5]: 91.6% | ATP concentration (cell proliferation with rat PDGF-BB 4 ng/mL, Cell Titer Glo, 6th day of culture), 10 µg/mL PDGFRb-rSMSC [6]: 0.62 µmol/L | ATP concentration (cell proliferation with rat PDGF-BB 4 ng/mL, Cell Titer Glo, 6th day of culture), 20 µg/mL PDGFRb-rSMSC [6]: 0.65 µmol/L | ATP concentration (cell proliferation with rat PDGF-BB 4 ng/mL, Cell Titer Glo, 6th day of culture), 40 µg/mL PDGFRb-rSMSC [6]: 0.24 µmol/L | ATP concentration (cell proliferation, Cell Titer Glo, 6th day of culture), 40 µg/mL PDGFRb-rSMSC [6]: 3.78 µmol/L | ATP concentration (cell proliferation, Cell Titer Glo, 6th day of culture), 120 µg/mL PDGFRb-rSMSC [6]: 4.12 µmol/L | surface antigen positive rate [7]: 85.9% | Expression rate (percent positive cells) [8]: 63.3% | surface antigen positive rate [9]: 95.2% | Expression rate (percent positive cells) [10]: 76.9% | surface antigen positive rate [11]: 92.2% | surface antigen positive rate [12]: 90.7% | Expression rate (percent positive cells) [13]: 32.8%

PE anti-mouse/rat integrin β1 Antibody (Biolegend Cat. No. 102207)
Expression rate (percent positive cells) [14]: 99.7% | Expression rate (percent positive cells) [15]: 97.8% | Expression rate (percent positive cells) [16]: 96.1% | Expression rate (percent positive cells) [17]: 62.1% | Expression rate (percent positive cells) [18]: 98.7% | Expression rate (percent positive cells) [19]: 97.8% | Expression rate (percent positive cells) [20]: 56.1%
